Reference: US20240352445A1 (ABWIZ BIO, published 2024)
Changes are numbered by the printed parent chain.

B1: LxC1-G10 (antibody, V domains shown)
VH: EVQLVESGGGLVQPGGSLRLSCTVSGFSLSTYAMSWVRQAPGKGLEWIGVIASNADTYYASWAKGRFTISRDNSKNTLYLQMNSLRAEDTAVYYCARHPGSAGYGYAVYYAMDPWGQGTLVTVSS
VL: DIQMTQSPSSLSASVGDRVTITCQASERVFYGIDWYQQKPGKAPKLLIYGASALWHGVPSRFSGSGSGTDYTLTISSLQPEDFATYYCQQGYMVPIGFGGGTKVEIK
notes: also called light chain engineered candidate
B2: humanized antibody hN2Y (antibody, V domains shown)
VH: B1 VH
VL: DIQMTQSPSSLSASVGDRVTITCKASEDIRYGLNWYQQKPGKAPKLLIYGANTLEAGVPSRFSGSGSGTDYTLTISSLQPEDFATYYCQQGYSTPLTFGGGTKVEIK
B3: SEQ ID NO 12 (antibody, V domains shown)
VH: B1 VH
VL: DIQMTQSPSSLSASVGDRVTITCQASQPIHYAINWYQQKPGKAPKLLIYGTSHRKMGVPSRFSGSGSGTDYTLTISSLQPEDFATYYCQQGYIVALKFGGGTKVEIK
notes: also called selected clone from LxC libraries; LxC clone
B4: SEQ ID NO 18 (antibody, V domains shown)
VH: B1 VH
VL: B2 VL with A51G, N52S, T53Y, E55R, A56W, S93R, T94V, L96I, T97R
notes: As m4; also called selected clone from LxC libraries; LxC clone
B5: SEQ ID NO 17 (antibody, V domains shown)
VH: B1 VH
VL: DIQMTQSPSSLSASVGDRVTITCQASQPIYYGINWYQQKPGKAPKLLIYGHTYRAWGVPSRFSGSGSGTDFTLTISSLQPEDFATYYCQQGYRVGLGFGGGTKVEIK
notes: As m4
B6: G10xA1 (antibody, V domains shown)
VH: EVQLVESGGGLVQPGESLRLSCKASGFTFPNQAMTWVRQAPGKGLEWIGVIASNADTYYASWAKGRFTISRDNSKNTLYLQMNSPRAEDTAVYYCARHPGSAGYGYALYYAMDPWGQGTLVTVSS
VL: B1 VL
B7: G10xA5 (antibody, V domains shown)
VH: B1 VH with F27Y, S28T, S30F, T31P, Y32P, A33P, M34V, S35T, A107Q, V108Y
VL: B1 VL
B8: SEQ ID NO 15 (antibody, V domains shown)
VH: B1 VH
VL: B3 VL with P28K, H53Y, R54L, K55G, M56G, Y71F, A95P, L96N, K97S
notes: As m4
B9: SEQ ID NO 16 (antibody, V domains shown)
VH: B1 VH
VL: B3 VL with P28D, I29V, H30K, H53S, K55G, M56E, I93V, A95S, L96I, K97F
notes: As m4

Tests used:
[1] = target: T1, SARS-CoV-2 spike protein trimer, Beta (B.1.351) variant (SARS-CoV-2, UniProt P0DTC2 16-1213); experiment: BLI (Octet), biotinylated spike trimer on streptavidin sensor, IgG titrated
[2] = target: T2, SARS-CoV-2 spike protein trimer, Omicron (B.1.1.529) variant (SARS-CoV-2, UniProt P0DTC2 16-1213)
[3] = target: SARS-CoV-2 spike protein trimer, Gamma (P.1) variant (SARS-CoV-2, UniProt P0DTC2 16-1213); experiment: ELISA, purified IgG
[4] = target: SARS-CoV-2 spike protein trimer, Alpha (B.1.1.7) variant (SARS-CoV-2, UniProt P0DTC2 16-1213); experiment: ELISA, purified IgG
[5] = target: SARS-CoV-2 spike protein trimer, Kappa (B.1.617.1) variant (SARS-CoV-2, UniProt P0DTC2 16-1213); experiment: ELISA, purified IgG
[6] = target: T1, SARS-CoV-2 spike protein trimer, Beta …; experiment: ELISA, purified IgG
[7] = target: SARS-CoV-2 spike protein trimer, Epsilon (B.1.429) variant (SARS-CoV-2, UniProt P0DTC2 16-1213); experiment: ELISA, purified IgG
[8] = target: T2, SARS-CoV-2 spike protein trimer, …; experiment: BLI (Octet), biotinylated spike trimer on streptavidin sensor, IgG titrated
[9] = target: SARS-CoV-2 spike protein trimer, Delta (B.1.617.2) variant (SARS-CoV-2, UniProt P0DTC2 16-1213); experiment: as above

Row | Binder | binding result [3] | binding result [4] | binding result [5] | binding result [6] | binding result [7] | also measured
1 | B1 | – | – | – | – | – | fold increased affinity compared to hN2Y [1]: > 100 fold; Kd [2]: 0.051 nM; fold improvement in IC50 compared to hN2Y [2]: > 13 fold
2 | B2 | – | – | – | – | – | IC50 [2]: 0.26 µg/mL
3 | B3 | binds | binds | binds | binds | binds | –
4 | B4 | binds | binds | binds | binds | binds | –
5 | B5 | binds | binds | binds | binds | binds | –
6 | B6 | – | – | – | – | – | fold improved affinity compared to LxC1-G10 [8]: 1.2 fold; fold improved affinity compared to LxC1-G10 [9]: > 20 fold
7 | B7 | – | – | – | – | – | fold improved affinity compared to LxC1-G10 [8]: 15 fold; fold improved affinity compared to LxC1-G10 [9]: > 20 fold
8 | B8 | binds | binds | binds | binds | binds | –
9 | B9 | binds | binds | binds | binds | binds | –
